Each block holds one molecule with its values, some of them ahead of it.
Key:
EGFR (human) [1] = target: EGFR (human) (UniProt P00533); assay: flow cytometry on HeLa cells; histogram shifted to between 10^2 and 10^3; 'No antibody' panel shows 5.56
EGFR (human) [2] = target: EGFR (human) (UniProt P00533); assay: flow cytometry on PCI-30 cells; main peak between 10^2 and 10^3 with a tail toward the control; 'No antibody' panel shows 13.1
EGFR (human) [3] = target: EGFR (human) (UniProt P00533); assay: flow cytometry on U2OS cells; histogram shifted to between 10^1 and 10^2, partly overlapping the control; 'No antibody' panel shows 6.17
antigen CD3 (Biacore) = assay: SPR (Biacore), antigen CD3

MFI (EGFR (human) [1]): 586
MFI (EGFR (human) [2]): 388
MFI (EGFR (human) [3]): 26.8
Molecule: EGFR 528 (phb 704) (antibody)

Kd (antigen CD3 (Biacore)): 64.6 nM
koff (antigen CD3 (Biacore)): 0.109 s⁻¹
kon (antigen CD3 (Biacore)): 1.68e+06 M⁻¹ s⁻¹
B1: huOKT3 IgG1-aGlyco (antibody, V domains shown)
VH: QVQLVQSGGGVVQPGRSLRLSCKASGYTFTRYTMHWVRQAPGKGLEWIGYINPSRGYTNYNQKFKDRFTISRDNSKNTAFLQMDSLRPEDTGVYFCARYYDDHYCLDYWGQGTPVTVSS
VL: DIQMTQSPSSLSASVGDRVTITCSASSSVSYMNWYQQTPGKAPKRWIYDTSKLASGVPSRFSGSGSGTDYTFTISSLQPEDIATYYCQQWSSNPFTFGQGTKLQITR

Reference: patent US20170210819A1
